# Measured values reported in paper PMC7914964, “Ca^2+-Dependent Protein Kinase 6 Enhances KAT2 Shaker Channel Activity in Arabidopsis thaliana” (International Journal of Molecular Sciences, 2021).
# Biological target: KAT2-CFP (Arabidopsis thaliana, UniProt Q38849 1-697)
# Assay: cell-based or functional assay
# Chain of KAT2-CFP (Q38849 whole entry): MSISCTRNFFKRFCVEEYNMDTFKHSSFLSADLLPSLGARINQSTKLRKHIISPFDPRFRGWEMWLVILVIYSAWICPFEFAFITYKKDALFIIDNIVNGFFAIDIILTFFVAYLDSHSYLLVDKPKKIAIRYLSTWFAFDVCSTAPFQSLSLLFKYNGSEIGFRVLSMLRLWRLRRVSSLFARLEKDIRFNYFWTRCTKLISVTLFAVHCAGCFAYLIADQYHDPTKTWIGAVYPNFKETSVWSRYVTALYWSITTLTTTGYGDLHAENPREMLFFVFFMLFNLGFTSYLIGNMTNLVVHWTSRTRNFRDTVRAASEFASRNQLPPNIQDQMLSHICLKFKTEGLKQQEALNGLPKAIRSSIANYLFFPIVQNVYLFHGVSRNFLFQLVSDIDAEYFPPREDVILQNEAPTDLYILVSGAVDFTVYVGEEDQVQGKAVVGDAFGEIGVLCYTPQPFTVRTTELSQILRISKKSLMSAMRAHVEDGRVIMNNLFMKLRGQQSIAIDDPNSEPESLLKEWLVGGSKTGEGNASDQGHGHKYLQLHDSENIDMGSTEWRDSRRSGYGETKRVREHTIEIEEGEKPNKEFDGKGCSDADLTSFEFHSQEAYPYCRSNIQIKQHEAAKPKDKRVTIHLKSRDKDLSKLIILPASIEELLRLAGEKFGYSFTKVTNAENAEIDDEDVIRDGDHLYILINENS
binder,measurement,value
"AtCPK6-YFP (enzyme, Arabidopsis thaliana, UniProt Q38872 1-544, looked up) MGNSCRGSFKDKIYEGNHSRPEENSKSTTTTVSSVHSPTTDQDFSKQNTNPALVIPVKEPIMRRNVDNQSYYVLGHKTPNIRDLYTLSRKLGQGQFGTTYLCTDIATGVDYACKSISKRKLISKEDVEDVRREIQIMHHLAGHKNIVTIKGAYEDPLYVHIVMELCAGGELFDRIIHRGHYSERKAAELTKIIVGVVEACHSLGVMHRDLKPENFLLVNKDDDFSLKAIDFGLSVFFKPGQIFKDVVGSPYYVAPEVLLKHYGPEADVWTAGVILYILLSGVPPFWAETQQGIFDAVLKGYIDFDTDPWPVISDSAKDLIRKMLCSSPSERLTAHEVLRHPWICENGVAPDRALDPAVLSRLKQFSAMNKLKKMALKVIAESLSEEEIAGLRAMFEAMDTDNSGAITFDELKAGLRRYGSTLKDTEIRDLMEAADVDNSGTIDYSEFIAATIHLNKLEREEHLVSAFQYFDKDGSGYITIDELQQSCIEHGMTDVFLEDIIKEVDQDNDGRIDYEEFVAMMQKGNAGVGRRTMKNSLNISMRDV","KAT2 currents at hyperpolarized potentials (TEVC) in Xenopus laevis oocytes co-expressing KAT2 and AtCPK6, against KAT2 alone",2 fold
